Substitutions are numbered along the chain they refer to. Numbers in names are those of the source. Each block holds one binder with its values, some of them ahead of it.
Assays:
[1] = molecular target: T1, factor VIIIa A1/A3C1C2 dimer, wild type (human, UniProt P00451 20-391; P00451 1709-2351); test: cell-based or functional assay
T1 sequence 1: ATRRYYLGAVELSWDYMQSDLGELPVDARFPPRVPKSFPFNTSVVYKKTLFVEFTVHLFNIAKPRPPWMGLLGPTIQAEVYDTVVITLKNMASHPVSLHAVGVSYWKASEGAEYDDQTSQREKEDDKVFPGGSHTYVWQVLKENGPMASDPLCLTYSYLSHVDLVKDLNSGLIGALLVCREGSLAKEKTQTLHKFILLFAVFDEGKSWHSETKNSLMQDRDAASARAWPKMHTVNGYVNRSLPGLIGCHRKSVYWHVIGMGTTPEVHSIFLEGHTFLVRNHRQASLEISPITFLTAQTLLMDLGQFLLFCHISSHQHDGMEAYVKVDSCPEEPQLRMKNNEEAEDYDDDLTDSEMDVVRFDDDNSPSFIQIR
T1 sequence 2: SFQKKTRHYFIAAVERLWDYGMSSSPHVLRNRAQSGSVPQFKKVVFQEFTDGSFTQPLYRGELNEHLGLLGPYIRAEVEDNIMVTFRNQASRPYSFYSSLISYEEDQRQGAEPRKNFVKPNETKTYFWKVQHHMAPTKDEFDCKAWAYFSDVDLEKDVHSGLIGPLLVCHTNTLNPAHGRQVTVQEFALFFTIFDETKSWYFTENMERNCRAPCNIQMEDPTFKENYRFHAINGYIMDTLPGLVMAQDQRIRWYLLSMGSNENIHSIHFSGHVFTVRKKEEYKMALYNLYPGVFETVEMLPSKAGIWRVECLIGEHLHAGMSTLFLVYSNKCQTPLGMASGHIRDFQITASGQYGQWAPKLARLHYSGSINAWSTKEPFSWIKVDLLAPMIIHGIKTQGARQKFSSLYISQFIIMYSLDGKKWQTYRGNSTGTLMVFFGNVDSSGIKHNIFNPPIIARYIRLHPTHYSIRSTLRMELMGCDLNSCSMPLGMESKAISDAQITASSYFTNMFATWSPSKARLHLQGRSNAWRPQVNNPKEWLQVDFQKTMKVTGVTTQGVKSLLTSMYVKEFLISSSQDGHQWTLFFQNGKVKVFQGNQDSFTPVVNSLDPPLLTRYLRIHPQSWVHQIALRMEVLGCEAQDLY

[2] = molecular target: T1, factor VIIIa A1/A3C1C2 dimer, wild type; test: cell-based or functional assay; remark: listed apart in the source

B1: factor VIIIa A2 subunit, S524A (other)
chain: SVAKKHPKTWVHYIAAEEEDWDYAPLVLAPDDRSYKSQYLNNGPQRIGRKYKKVRFMAYTDETFKTREAIQHESGILGPLLYGEVGDTLLIIFKNQASRPYNIYPHGITDVRPLYSRRLPKGVKHLKDFPILPGEIFKYKWTVTVEDGPTKADPRCLTRYYSSFVNMERDLASGLIGPLLICYKESVDQRGNQIMSDKRNVILFSVFDENRSWYLTENIQRFLPNPAGVQLEDPEFQASNIMHSINGYVFDSLQLSVCLHEVAYWYILSIGAQTDFLSVFFSGYTFKHKMVYEDTLTLFPFSGETVFMSMENPGLWILGCHNSDFRNRGMTALLKVSSCDKNTGDYYEDSYEDISAYLLSKNNAIEPR
Factor VIIIa decay rate relative to wild type, FIXa (+) [1]: 40.4 relative to wild type
Factor VIIIa decay rate relative to wild type, FIXa (-) [1]: 7 relative to wild type
Factor VIIIa decay rate, FIXa (+) [1]: 0.455 min⁻¹
Factor VIIIa decay rate, FIXa (-) [1]: 0.442 min⁻¹

B3: factor VIIIa A2 subunit, D519A and E665A (other)
chain: B1 chain with D147A, A152S, E293A
Decay rate relative to wild type, Factor VIIIa (1.5 nM, factor IXa absent) [2]: 0.25 relative to wild type
Decay rate, Factor VIIIa (1.5 nM factor VIIIa, factor IXa absent) [2]: 0.0352 min⁻¹

B7: factor VIIIa A2 subunit, D666A (other)
chain: B1 chain with A152S, D294A
Factor VIIIa decay rate relative to wild type, FIXa (+) [1]: 4.83 relative to wild type
Factor VIIIa decay rate, FIXa (+) [1]: 0.0545 min⁻¹

B8: factor VIIIa A2 subunit, E683A (other)
chain: B1 chain with A152S, E311A
Factor VIIIa decay rate relative to wild type, FIXa (+) [1]: 2.33 relative to wild type
Factor VIIIa decay rate, FIXa (+) [1]: 0.0263 min⁻¹

B9: factor VIIIa A2 subunit, R531A (other)
chain: B1 chain with A152S, R159A
Factor VIIIa decay rate relative to wild type, FIXa (+) [1]: 6.72 relative to wild type
Factor VIIIa decay rate, FIXa (+) [1]: 0.0758 min⁻¹

B11: factor VIIIa A2 subunit, N538A (other)
chain: B1 chain with A152S, N166A
Factor VIIIa decay rate relative to wild type, FIXa (+) [1]: 1.28 relative to wild type
Factor VIIIa decay rate, FIXa (+) [1]: 0.0144 min⁻¹

B12: factor VIIIa A2 subunit, E540A (other)
chain: B1 chain with A152S, E168A
Factor VIIIa decay rate relative to wild type, FIXa (+) [1]: 0.81 relative to wild type
Factor VIIIa decay rate, FIXa (+) [1]: 0.0091 min⁻¹

B14: factor VIIIa A2 subunit, D696A (other)
chain: B1 chain with A152S, D324A
Factor VIIIa decay rate relative to wild type, FIXa (+) [1]: 1.05 relative to wild type
Factor VIIIa decay rate, FIXa (+) [1]: 0.0118 min⁻¹

B15: factor VIIIa A2 subunit, N684A (other)
chain: B1 chain with A152S, N312A
Factor VIIIa decay rate relative to wild type, FIXa (+) [1]: 36.3 relative to wild type
Factor VIIIa decay rate relative to wild type, FIXa (-) [1]: 18.8 relative to wild type
Factor VIIIa decay rate, FIXa (+) [1]: 0.41 min⁻¹
Factor VIIIa decay rate, FIXa (-) [1]: 1.18 min⁻¹

Now from value to binder:

Factor VIIIa decay rate relative to wild type, FIXa (+) [1]: 2.81 relative to wild type
Factor VIIIa decay rate, FIXa (+) [1]: 0.0317 min⁻¹
B2: factor VIIIa A2 subunit, S650A (other)
chain: B1 chain with A152S, S278A

Factor VIIIa decay rate relative to wild type, FIXa (+) [1]: 0.75 relative to wild type
Factor VIIIa decay rate, FIXa (+) [1]: 0.0085 min⁻¹
B4: factor VIIIa A2 subunit, S695A (other)
chain: B1 chain with A152S, S323A

Factor VIIIa decay rate relative to wild type, FIXa (+) [1]: 2.39 relative to wild type
Factor VIIIa decay rate, FIXa (+) [1]: 0.027 min⁻¹
B5: factor VIIIa A2 subunit, T522A (other)
chain: B1 chain with T150A, A152S

Factor VIIIa decay rate relative to wild type, FIXa (+) [1]: 1.28 relative to wild type
Factor VIIIa decay rate, FIXa (+) [1]: 0.0145 min⁻¹
B6: factor VIIIa A2 subunit, S654A (other)
chain: B1 chain with A152S, S282A

Factor VIIIa decay rate relative to wild type, FIXa (+) [1]: 1.31 relative to wild type
Factor VIIIa decay rate, FIXa (+) [1]: 0.0148 min⁻¹
B10: factor VIIIa A2 subunit, Y664F (other)
chain: B1 chain with A152S, Y292F

Factor VIIIa decay rate relative to wild type, FIXa (+) [1]: 1.23 relative to wild type
Factor VIIIa decay rate, FIXa (+) [1]: 0.0139 min⁻¹
B13: factor VIIIa A2 subunit, Y476F (other)
chain: B1 chain with Y104F, A152S

Reference: patent US20090118184A1 (UNIVERSITY OF ROCHESTER, published 2009)
